Results published in paper PMC10984146.
Values joined by “and” are separate entries in the source; they are usually repeats but may differ in a detail not shown here. Equal entries are not always repeated. Where two headings read alike, the source gives them in different places.

Tests used:
[1] = target: reconstituted αVβ5/Hsp90α complex (human) (UniProt P06756); experiment: fluorescence polarisation
[2] = target: A488-irisin-His (UniProt Q8NAU1); experiment: fluorescence polarisation
[3] = target: A488-irisin-His (UniProt Q8NAU1); experiment: fluorescence polarisation; remark: listed apart in the source
[4] = target: unclasped and untagged recombinant human integrin αVβ5 ectodomain (human) (UniProt P06756); experiment: fluorescence polarisation
[5] = target: clasped and tagged recombinant human integrin αVβ5 ectodomain (human) (UniProt P06756); experiment: BLI
[6] = target: A488-irisin-His (UniProt Q8NAU1); experiment: MST
[7] = target: A488-FN10 (human); experiment: fluorescence polarisation
[8] = target: A488-irisin-bac (UniProt Q8NAU1); experiment: fluorescence polarisation

For “unlabeled and untagged irisin (glycosylated, from mammalian cells) (from UniProt Q8NAU1 1-191) (ligand)”, the Kd [1] was 50 nM.

For “reconstituted αVβ5/Hsp90α complex (from UniProt P06756 32-991; P18084 24-717; P07900 1-732)”, the Kd [2] was 37 nM and the Kd [3] was 31 nM.

For “αVβ5 ectodomain mutant R218E (β5) (from UniProt P06756 32-991; P18084 24-717) (receptor)”, the reduction of affinity for irisin compared to WT [2] was > 90%.

“FN10 (human fibronectin 10th FNIII domain, untagged) (domain or fragment)” gave a Kd [4] of 239 nM.

“irisin-His (wild-type, glycosylated recombinant irisin from mammalian cells) (from UniProt Q8NAU1 1-191) (ligand)” gave a Kd [4] of 35 nM, a Kd [1] of 52 nM and a Kd [5] of 212 nM.

With “αVβ5 ectodomain mutant E304R (β5) (from UniProt P06756 32-991; P18084 24-717) (receptor)” the reduction of affinity for irisin compared to WT [2] was 80%.

For “unclasped and untagged recombinant human integrin αVβ5 ectodomain (from UniProt P06756 32-991; P18084 24-717) (receptor)”, the stoichiometry N [6] was 1, the Kd [7] was 146 nM and the Kd [8] was 256 nM. For the same substance, the Kd [2] was 28 nM.

For “irisin-bac (non-glycosylated irisin produced in bacteria) (from UniProt Q8NAU1 1-260) (ligand)”, the Kd [4] was 294 nM and 299 nM.
